According to publication PMC9036120:
Like-named read-outs stand apart in the source and are kept apart here.

Key:
[1] = biological target: T1, PPARA;RXRA (mouse;mouse, UniProt P23204;P28700 1-468;1-467, |); experiment: EMSA
T1 sequence 1: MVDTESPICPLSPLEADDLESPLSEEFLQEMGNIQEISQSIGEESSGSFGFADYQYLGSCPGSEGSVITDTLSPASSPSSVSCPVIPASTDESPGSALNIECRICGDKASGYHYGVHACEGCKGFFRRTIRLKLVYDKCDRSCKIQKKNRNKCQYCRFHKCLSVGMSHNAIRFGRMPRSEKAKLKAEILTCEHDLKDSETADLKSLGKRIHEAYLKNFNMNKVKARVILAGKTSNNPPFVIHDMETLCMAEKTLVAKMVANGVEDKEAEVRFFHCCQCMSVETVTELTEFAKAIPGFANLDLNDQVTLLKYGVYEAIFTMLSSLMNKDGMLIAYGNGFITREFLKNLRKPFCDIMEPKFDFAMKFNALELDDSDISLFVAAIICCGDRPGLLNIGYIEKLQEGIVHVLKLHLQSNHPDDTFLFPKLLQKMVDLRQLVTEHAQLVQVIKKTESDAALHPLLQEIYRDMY
T1 sequence 2: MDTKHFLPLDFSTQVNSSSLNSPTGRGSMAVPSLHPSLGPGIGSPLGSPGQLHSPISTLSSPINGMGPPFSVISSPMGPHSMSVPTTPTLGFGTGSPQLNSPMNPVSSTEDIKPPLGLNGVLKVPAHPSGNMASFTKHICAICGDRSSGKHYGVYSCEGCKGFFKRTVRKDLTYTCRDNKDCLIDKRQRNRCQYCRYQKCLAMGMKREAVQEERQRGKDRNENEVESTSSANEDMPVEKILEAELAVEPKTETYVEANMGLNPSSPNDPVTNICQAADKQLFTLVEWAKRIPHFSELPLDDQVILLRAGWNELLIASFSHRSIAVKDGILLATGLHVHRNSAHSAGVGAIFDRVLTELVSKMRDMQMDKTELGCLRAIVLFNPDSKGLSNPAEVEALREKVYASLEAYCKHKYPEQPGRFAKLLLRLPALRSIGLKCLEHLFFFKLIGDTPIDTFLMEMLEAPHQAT

[2] = biological target: T1, PPARA;RXRA; experiment: EMSA; remark: listed apart in the source

B1: Control (Acox1)-PPRE (dsDNA)
DNA 1: TCCCGAACGTGACCTTTGTCCTGGTCCCCTG
DNA 2: CAGGGGACCAGGACAAAGGTCACGTTCGGGA
binding result [1]: binds

B2: E2f8-PPRE4 (dsDNA)
DNA 1: AGGCCCAGTAGGTTAAAGGGCTGACATTTTA
DNA 2: TAAAATGTCAGCCCTTTAACCTACTGGGCCT
binding result [2]: binds

B3: Ppara-PPRE6 (dsDNA)
DNA 1: AAGTTTCAATGACCTTTGGGACAGTTAACTA
DNA 2: TAGTTAACTGTCCCAAAGGTCATTGAAACTT
binding result [2]: binds
